Here are results for 16 molecules from US8124742.

Residue numbers refer to the chain shown, from its start.

The chains are these.
T1: human Rh(D) antigen on Rh(D)-positive red blood cells (human, UniProt Q02161 2-417)
T1 construct: whole, on cells; also called wt; wild type Rh(D)
T1 sequence (looked up): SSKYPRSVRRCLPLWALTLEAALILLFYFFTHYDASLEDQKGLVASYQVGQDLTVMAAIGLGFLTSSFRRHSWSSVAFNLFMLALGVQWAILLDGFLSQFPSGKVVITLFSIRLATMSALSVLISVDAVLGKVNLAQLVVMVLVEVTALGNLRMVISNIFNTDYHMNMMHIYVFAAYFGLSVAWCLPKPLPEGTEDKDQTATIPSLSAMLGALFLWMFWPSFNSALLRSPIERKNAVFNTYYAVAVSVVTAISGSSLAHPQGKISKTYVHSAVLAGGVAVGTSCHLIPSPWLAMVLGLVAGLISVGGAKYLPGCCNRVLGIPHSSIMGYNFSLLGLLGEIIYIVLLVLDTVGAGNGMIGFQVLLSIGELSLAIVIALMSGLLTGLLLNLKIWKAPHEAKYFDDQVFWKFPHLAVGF

B1: E1/M2 (Fab, V domains shown)
VH: EVQLLESGGGLVKPGGSLRLSCAASGFTFSSYSMHWVRQAPGKGLEWVSSISNSNTYIYYADAVKGRFTISRDNAKNSLYLQMNSLRAEDTAVYYCARDSRYSNFLRWVRSDGMDVWGQGTTVIVSS
VL: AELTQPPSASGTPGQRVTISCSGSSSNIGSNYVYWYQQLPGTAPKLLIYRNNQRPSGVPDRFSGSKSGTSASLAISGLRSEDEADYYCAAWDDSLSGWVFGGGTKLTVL
notes: Fab on M13 phage; heavy chain E1 with λ light chain M2; also called E01/M02
B2: E1/M3 (Fab, V domains shown)
VH: B1 VH
VL: AELTQPPSASGTPGQRVTISCSGSSSNIGSNYVYWYQQLPGTAPKLLIYRNNQRPSGVPDRFSGSKSGTSASLAISGLRSEAEADYYCAAWDDSLSAVVFGGGTKLTVLL
notes: used both as Fab on M13 phage and as soluble γ1λ Fab; also called E01/M03; anti-epD3
B3: E1/L3 (Fab, V domains shown)
VH: B1 VH
VL: AELTQPPSASGTPGQRVTISCSGSSSNIGNNHVSWYQQLPGMAPKLLIYSNGQRPSGVPDRFSGSKSGTSASLAISGLQSEDEADYYCAAWHDSLYGPVFGGGTKLTVL
notes: Fab on M13 phage; also called E1 with L3
B4: E1/L4 (Fab, V domains shown)
VH: B1 VH
VL: AELTQPPSASGTPGQRVSISCSGSSSNIGSNTVNWYQQLPGTAPKLLISTNNQGPSGVPDRFSGSKSGTSSSLAISGLRSEAEDDYYCAAWDDTLNGVVFGGGTKLTVL
notes: Fab on M13 phage; also called E1 with L4
B5: SH37 (Fab, V domains shown)
VH: EVQLLESGGGVVQPGRSLRLSCEASKFTLYNYGMHWVRQAPGKGLEWVAFIWFDGSNKYYEDSVKGRFTVSRDNSKNTLYLQMNSLRAEDTAVYYCARELSKKVALSRYYYYMDVWGQGTTVTVSS
VL: AELQDPVVSVALGQTVKITCQGDSLRKYYASWYQQKPGQAPVLVFYARNSRPSGIPDRFSGSNSGTTASLTIAGARAEDEADYYCHSRDSNGHHRVFGGGTKLTVL
notes: Fab on M13 phage
B6: SH55 (Fab, V domains shown)
VH: EVQLLESGGGVVQPGRSLRLSCVVSGFTFNNYGMHWVRQAPGKGLEWVAVIWFDGSNKYYADSVKGRFTISRDNSKNTLYLQMNSLRAEDTAVYYCARENQIKLWSRYLYYFDYWGQGTLVTVSS
VL: AELTQPPSASGTPGQRVTISCSGSSSNIGSKYVYWYQQLPGTAPKLLIYSNNQRPSGVPDRFSAFKSGTSASLAITGLQAEDEANYYCQSYDSGLSGWVFGGGTKLTVL
notes: Fab on M13 phage
B7: SH49 (Fab, V domains shown)
VH: EVQLLESGGGVVQPGRSLRLACAASGFSFRSYGMHWVRQAPGRGLEWVAFTWFDGSNKYYVDSVKGRFTISRDNSKNTLYLEMNSLRVDDTAVYYCAREASMLRGISRYYYAMDVWGPGTTVTVSS
VL: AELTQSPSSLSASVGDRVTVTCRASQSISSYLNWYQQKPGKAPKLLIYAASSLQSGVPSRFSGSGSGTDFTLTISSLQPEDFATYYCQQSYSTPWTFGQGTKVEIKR
notes: Fab on M13 phage
B8: SH51 (Fab, V domains shown)
VH: B7 VH
VL: AELTQSPSFLSASVGDRVTITCRASQGIRSYLAWYQQKPGKAPKLLIYAASTLQSGVPSRFSGSGSGTEFTLTISSLQPEDFATYYCQQLNNYPPFTFGPGTKVDIKR
notes: Fab on M13 phage
B9: SH53 (Fab, V domains shown)
VH: EVQLLESGGGGVQPGRSLRLSCAASGFTFNSYAMYWVRQPPGKGLEWVAAIWYDGSNKEYADFVKGRFTISRDNSKNTLSLQMNSLRDEDTAVYYCAREANLLRGWSRYYYGMDVWGQGTTVTVSS
VL: AELQDPVVSVALGQTVRITCQGDGLRSYYASWYQQKPGQAPKLVMYGRNNRPSGIPGRFSGSSSGQTAALTITGTQAEDEADYYCQSRATSGNPVVFGGGTKLTVL
notes: Fab on M13 phage
B10: SH46 (Fab, V domains shown)
VH: VQLLEESGGGVVQPGRSLRLSCAASGFTFSSYGMHWVRQAPGRGLEWVALIWYDGGNKEYADSVKGRFSISRDNSKNTLYLQVNSLRADDTAVYYCARDQRAAAGIFYYSRMDVWGQGTTVTVSS
VL: AELTQSPSSLSASVGDRVTITCRASQYISSYLNWYQQKPGKAPNLLIYAASSLQSGVPSRFSGSGSGTDFTLTISSLQPEDFATYYCQQTYSSPSTFGPGTKVDIKR
notes: Fab on M13 phage
B11: SH47 (Fab, V domains shown)
VH: EVQLLESGGGVVQPGRSLRLSCAASGFSFSNYAMHWVRQAPGKGLEWVAVTSFDGSIKDYADSVKGRFTISRDNSKNTLYLQMNSLRDEDTAVYYCARERGMIVVVRRRNAFDIWGQGTMVTVSS
VL: B10 VL with Y27S, S30N, T90S, S93Y, S95R, P99Q, D104E, K106R
notes: Fab on M13 phage
B12: SH54 (Fab, V domains shown)
VH: EVQLLESGGGVVQPGRSLRLSCAASGFTFSRNGMHWVRQAPGKGLEWVAFIWFDGSNKYYADSVKGRFTISRDNSKNTLYLQMNSLRADDTAVYYCAREEALFRGLTRWSYGMDVWGQGTTVSVSS
VL: B10 VL with L10M, Y27S, S29G, S30T, N44K, T90S, S93T, S95W, P99Q, D104E
notes: Fab on M13 phage
B13: SH48 (Fab, V domains shown)
VH: EVQLLESGGGVVQPGRSLRLSCAASGFSFSSYGMHWVRQAPGKGLEWVAVISYDGTNKYFADSVKGRFTISRDNSKKTLYLQMTSLRPEDTAVYFCANLRGEVTRRASVPLDIWGQGTMVTVSS
VL: B10 VL
notes: Fab on M13 phage
B14: SH44 (Fab, V domains shown)
VH: EVQLLESGGGVAQPGRSLRLSCVASGFSLRSYGMHWVRQAPGKGLEWVADIWFDGSNKDYADSVKGRFTISRDNSKNTLYLQMNSLRAEDTAVYYCARDWRVRAFSSGWLSAFDIWGQGTMVTVSS
VL: AELTQSPSSLSASVGDRVIITCRASQTIPRFLNWYQQKPGKAPVLLIHSISSLQSGVPSRFSASGSGTEFTLTISSLQPEDFATYYCQQSYSNLSFGPGTTVDIRR
notes: Fab on M13 phage
B15: SH39 (Fab, V domains shown)
VH: VQLLEQSGGGVVQPGRSLRLSCAASGFTFSSYGMHWVRQAPGKGLEWVAVIWFDGSNKEYADSVKGRFTISRDNSKNTLYLQMNSLRAEDTAVYYCAREEVVRGVILWSRKFDYWGQGTLVTVSS
VL: AELTQSPSSLSASVGDRVTITCRASQTIGRYLNWYQQRPGKAPKLLVYAVSSLQSGAPSRFSGSGSGTHFTLTITSLQPEDFATYFCQQSYSSPFTFGQGTKVEIKR
notes: Fab on M13 phage
B16: SH41 (Fab, V domains shown)
VH: B15 VH with V1E, Q2V, L3Q, E5L, Q6E, S31T
VL: AELTQSPSSLSASVGDRVTITCRASQNIRRSLNWYQHKPGRAPRLLIYAASTLQSGVPSRFRGSGSGTDFTLTINSLQPADFATYYCQQSSNTPWTFGHGTKVEIKR
notes: Fab on M13 phage

For the first assay, the target named is T1, human Rh(D) antigen on Rh(D)-positive …. The assay can be described thus: agglutination, anti-M13.
For B1, the binding result is “binds”.
Same read-out and setting: the entry for B2 is “binds”.
On the same count and under the same terms, the entry for B3 is “binds”; for B4 it is “binds”.

For the next assay the target is unchanged. The assay is described as follows: agglutination, anti-M13. The source holds these as a separate data set. How it is done: The binding of anti-Rh(D) Fab/phage or soluble Fab molecules to normal or partial Rh(D) antigens was assessed by indirect agglutination assays as described (Siegel et al., 1994, Blood 83:2334; Siegel et al., 1997, J. Immunol. Meth. 206: 73). […] Following a one-hour incubation at 37° C., the RBCs were washed 3 times with 2 ml of cold PBS to remove unbound antibody. The resulting RBC pellets were resuspended in 100 μl of a 10 μg/ml solution of sheep anti-M13 antibody (5 Prime-3 Prime, Boulder, Colo.) for Fab/phage experiments or goat anti-human κ or λ light chain antibody (Tago, Burlingame, Calif.) for $\gamma_1\kappa$ or $\gamma_1\lambda$ soluble Fab experiments, respectively. The RBC suspensions were transferred to the round-bottomed wells of a 96-well microplate and left undisturbed for 2 hours. Negative reactions show sharp ~2 millimeter diameter RBC spots whereas the RBCs in agglutinated wells form a thin carpet coating the entire floor of the well (Siegel et al., 1997, J. Immunol. Meth. 206:73). Agglutination titers for recombinant antibodies were determined by performing serial 2-fold dilutions in 1% BSA/PBS.
Fifty-six randomly chosen colonies were selected, and monoclonal Fab/phage preparations were separately produced from each of these individual colonies, using the methods described herein in Example 1. Rh(D) specificity was determined by indirect agglutination using anti-M13 antibody, as described herein in Examples 1 and 2.
As for B5, the binding result is on record as “binds”.
On to B6, for which the binding result was “binds”.
On the same count and under the same terms, the entry for B7 is “binds”; for B8 it is “binds”.
On the same count and under the same terms, the result for B9 reads “binds”.
The same measure, in the same setting: the entry for B10 is “binds”.
In the case of B11, the binding result was “binds”.
Regarding B12, the binding result is on record as “binds”.
On the same count and under the same terms, the entry for B13 is “binds”; for B14 it is “binds”.
On the same count and under the same terms, the result for B15 reads “binds”; that for B16, “binds”.
